B1: COV_2103 (antibody, V domains shown)
VH: EVQLVESGGGVVQPGRSLRLSCGASGFTFSSYGIHWVRQAPGKGLDWVAVIWHDGSQKYYGDSVKGRFTISRDNSKNTLYLQMNRLRAEDTAVYYCARDSGDDYDSSGYPIGNAFDLWGQGTMVTVSS
VL: DIQMTQSPSTLSASVGDRVTITCRASQFINSWLAWYQQKPGKAPKLLIYKASSLETGVPSRFSGSGSGTEFTLTISSLQPDDFATYYCQQYNTYSFTFGPGTKVDIK
notes: human IgG1
B2: COV_1118 (antibody, V domains shown)
VH: EVQLVESGGGLVKPGGSLRLSCAASGFSFSNYNMNWVRQAPGKGLEWVSYISSSSSYIYYADSVKGRFTISRDNAKNSLYLQMNSLRGEDTAVYSCAREASGAYYFDRSGYFDYWGQGTLVTVSP
VL: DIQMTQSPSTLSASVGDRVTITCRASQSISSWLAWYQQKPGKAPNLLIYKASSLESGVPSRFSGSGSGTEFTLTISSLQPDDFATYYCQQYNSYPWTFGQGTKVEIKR
notes: human IgG1
B3: COV_1136 (antibody, V domains shown)
VH: B2 VH with S28T, N31D, Y32C, Y50S, S54R, G88A
VL: DIQMTQSPSTLSASVGDRVTITCRASQSISSWLAWYQQKPGKAPNLLIYKASSLESGVPSRFSGSGSGTEFTLTISSLQPDDFATYYCQQYNTYPWTFGQGTKVEIKR
notes: human IgG1
B4: COV_1154 (antibody, V domains shown)
VH: B2 VH with S28R, N31D
VL: B3 VL with D81Y, T93S, T97A, I106M
notes: human IgG1
B5: COV_3053 (antibody, V domains shown)
VH: EVQLVESGGGLVQPGRSLRLSCTASGFTLGDYAMTWVRQAPGKGLEWLGIIRNKRYGETKQYAASVKGRFTFSRDDSKGIGYLQRLSLKIEDTGVYYCTREHIVRDDAFDVWGQGTTVTVSS
VL: DIVMTQSPDSLAVSLGERATINCKSSQSVLYSSNNKNYIAWYQQRPGQPPKLLIYWTSTRASGVPDRFSGSGSGTDFALTISSLQAEDVAVYYCQQYYTIPRTFGQGTKVEIK
notes: human IgG1
B6: COV_2196 (antibody, V domains shown)
VH: QVQLVQSGAEVKKPGASVKVSCKVSGYTLIELSMHWVRQAPGKGLEWMGGFDPEDAKTIYAQKFQGRVTMTEDTSTDTAYMELSSLTFEDTAVYYCATTPAFMAAAGDFDYWGQGTLVTVSS
VL: QPVLTQPSSVSVSPGQTATITCSGDVLAKKYARWFQQKPGQAPMLVIYKDTERPSGIPERFSGSSSGTTVTLTINGAQVEDEADYYCYSAAAWVFGGGTKLTVL
notes: human IgG1
B7: COV_2137 (antibody, V domains shown)
VH: EVQLVESGGGLVKPGGSLRLSCAASGFTFSSYTMNWVRQAPGKGLEWVSSISSGSSFIYYADSLRGRFTISRDNAKNSLYLQMNSLRAEDTAVYYCARAPEPQSVIYAYWYFDLWGRGTLVTVSS
VL: QSALTQPASVSGSPGQSITFSCTGTSSDVGSYNLVSWYQQYPGKAPKLMIYEVNKRPSGVSNRFSGSKSGNTASLTISGLQAEDEADYYCCSYAGSSTFYVFGTGTKVTVLG
notes: human IgG1
B8: COV_3088 (antibody, V domains shown)
VH: EVQLVESGGGLVQPGGSLRLSCAASGFTFSSYDMHWVRQATGKGLEWVSAIGTAGDTYYPGSVKGRFTISRENAKNSLYLQMNSLRAGDTAVYYCARGSGWPPFFDYWGQGTLVTVSS
VL: SYELTQPPSVSVAPGKTARITCGGNNIGSKSVHWYQQKPGQAPVLVIYYDSDRPSGIPERFSGSNSGNTATLTISRVEAGDEADYYCQVWDSSSDHHWVFGGGTKLTVL
notes: human IgG1
B9: COV_1050 (antibody, V domains shown)
VH: QVQLVESGGGVVQPGRSLRLSCAASRFTFSSYAMHWVRQAPGKGLEWVAVISFDGSNKYYADSVKGRFTIFRDNSKNTLSLQMNSLRTEDTAMYYCASPAGYYESLWGQGTLVTVSS
VL: SYELTQPPSVSVSPGQTARVTCSGDALSKQYGFWYQQKPGQAPTLVIYKDTERPSGIPERFSGSGSGTTVTLTISGVQAEDEADYYCQSTDNSGRWVFGGGTKLTVLG
notes: human IgG1
B10: COV_1184 (antibody, V domains shown)
VH: QVQLQQWGAGLLKPSETLSLTCAVYGGSFSGYYWSWIRQPPGKGLEWIGEINHSGNTTYNPSLKSRVTISVDTSKNQFSLKLSSVTAADTAVYYCARGLVITYYYDSSGKPFDPWGQGTLVTVSS
VL: not shown
notes: human IgG1
B11: COV_1177 (antibody, V domains shown)
VH: QVQLVESGGGVVQPGRSLRLSCAASGFTFSSYGMHWVRQAPGKGLEWVAVIWYDGSNKYYADSVKGRFTISRDNSKNTLYLQMNSLRAEDTAVYYCARDPLGAVAGYFDYWGQGTLVTVSS
VL: SYVLTQPPSVSVAPGQTARITCGGNNIGSKSVHWYQQKPGQAPVLVVYDDSDRPSGIPERFSGSNSGNTATLTISRVEAGDEADYYCQVWDSSSDHHWVFGGGTKLTVLG
notes: human IgG1
B12: COV_1145 (antibody, V domains shown)
VH: QVQLVESGGGVVQPGRSLRLSCAASGFTFSSYGMHWVRQAPGKGLEWVAVIWYDGSNKYYADSVKGRFTISRDNSKNTLYLQMNSLRVEDTAVYYCAREGQLGATGLDCWGQGTLVSVSS
VL: SYELTQPPSVSVSPGQTARITCSGDALPKKYAYWYQQKSGQAPVLVIYEDSKRPSGIPERFSGSSSGTMATLTISGAQVEDEADYYCYSTDNSGNHWVFGGGTKLTVLG
notes: human IgG1

Where a chain is given by its changes, count along the chain named.

The first experiment addresses T1, HCoV-OC43 spike antigens (bead panel) (HCoV-OC43, UniProt P36334 14-1297).
T1 sequence: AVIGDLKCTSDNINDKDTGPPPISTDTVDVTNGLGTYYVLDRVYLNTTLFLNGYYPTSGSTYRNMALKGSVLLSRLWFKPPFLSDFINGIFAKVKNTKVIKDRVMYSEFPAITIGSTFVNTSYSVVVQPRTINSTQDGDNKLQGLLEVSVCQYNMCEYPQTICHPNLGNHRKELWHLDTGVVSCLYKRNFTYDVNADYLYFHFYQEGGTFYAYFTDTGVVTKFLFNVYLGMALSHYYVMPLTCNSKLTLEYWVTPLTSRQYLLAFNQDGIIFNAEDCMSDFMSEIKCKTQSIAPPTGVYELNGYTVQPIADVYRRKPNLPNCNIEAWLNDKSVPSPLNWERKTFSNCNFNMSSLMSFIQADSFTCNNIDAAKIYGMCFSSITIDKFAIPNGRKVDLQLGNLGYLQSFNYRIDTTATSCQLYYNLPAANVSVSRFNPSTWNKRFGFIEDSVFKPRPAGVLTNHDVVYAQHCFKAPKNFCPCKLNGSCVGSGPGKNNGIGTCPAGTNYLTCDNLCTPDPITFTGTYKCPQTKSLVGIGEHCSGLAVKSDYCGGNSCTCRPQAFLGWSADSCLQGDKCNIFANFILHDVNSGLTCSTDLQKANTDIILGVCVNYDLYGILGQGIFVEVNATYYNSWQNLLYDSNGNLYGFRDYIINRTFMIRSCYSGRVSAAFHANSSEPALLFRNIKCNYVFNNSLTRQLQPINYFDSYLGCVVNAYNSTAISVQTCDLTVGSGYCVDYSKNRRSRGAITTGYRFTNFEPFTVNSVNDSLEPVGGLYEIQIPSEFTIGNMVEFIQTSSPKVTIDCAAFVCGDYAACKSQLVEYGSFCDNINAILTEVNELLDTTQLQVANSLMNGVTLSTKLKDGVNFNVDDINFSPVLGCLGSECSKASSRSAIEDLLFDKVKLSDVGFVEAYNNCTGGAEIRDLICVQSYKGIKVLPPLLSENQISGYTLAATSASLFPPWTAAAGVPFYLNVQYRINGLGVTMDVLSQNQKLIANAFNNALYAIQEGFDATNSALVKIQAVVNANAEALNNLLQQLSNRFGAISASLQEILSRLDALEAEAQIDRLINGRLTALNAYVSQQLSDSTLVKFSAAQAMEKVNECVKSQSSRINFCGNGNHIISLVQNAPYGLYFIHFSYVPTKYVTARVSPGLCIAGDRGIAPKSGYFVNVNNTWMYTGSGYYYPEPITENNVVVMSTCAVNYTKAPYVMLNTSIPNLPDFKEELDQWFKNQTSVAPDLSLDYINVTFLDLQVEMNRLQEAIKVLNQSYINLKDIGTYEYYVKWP
Description: multiplex bead assay.
On to B1, for which the binding result is “no binding”.
The same measure, in the same setting: to B2 belongs “no binding”.
On to B3, for which the binding result was “no binding”.
Regarding B4, the binding result is given as “no binding”.
As to B5, the binding result was “no binding”.
For B6, the binding result was “no binding”.
In the case of B7, the binding result is given as “no binding”.
Same read-out and setting: to B8 belongs “no binding”; to B9, “no binding”; to B10, “no binding”.
Consider B11, for which the binding result is “no binding”.
Still for that read-out and setting: under B12 stands “no binding”.

For a further experiment, the target named is SARS-CoV-1 spike antigens (bead panel) (SARS-CoV-1, UniProt P59594 14-1195). Kind of experiment: multiplex bead assay.
As for B1, the binding result is “no binding”.
Turning to B2, the binding result was “no binding”.
Regarding B3, the binding result is “no binding”.
Still for that read-out and setting: to B4 belongs “no binding”; to B5, “no binding”; to B6, “no binding”.
As to B7, the binding result is recorded as “no binding”.
The same measure, in the same setting: to B8 belongs “no binding”; to B9, “no binding”.
As to B10, the binding result is “no binding”.
On to B11, for which the binding result is “no binding”.
In the case of B12, the binding result is “no binding”.

Another experiment addresses T2, HCoV-229E spike antigens (bead panel) (HCoV-229E, UniProt P15423 16-1115).
T2 sequence: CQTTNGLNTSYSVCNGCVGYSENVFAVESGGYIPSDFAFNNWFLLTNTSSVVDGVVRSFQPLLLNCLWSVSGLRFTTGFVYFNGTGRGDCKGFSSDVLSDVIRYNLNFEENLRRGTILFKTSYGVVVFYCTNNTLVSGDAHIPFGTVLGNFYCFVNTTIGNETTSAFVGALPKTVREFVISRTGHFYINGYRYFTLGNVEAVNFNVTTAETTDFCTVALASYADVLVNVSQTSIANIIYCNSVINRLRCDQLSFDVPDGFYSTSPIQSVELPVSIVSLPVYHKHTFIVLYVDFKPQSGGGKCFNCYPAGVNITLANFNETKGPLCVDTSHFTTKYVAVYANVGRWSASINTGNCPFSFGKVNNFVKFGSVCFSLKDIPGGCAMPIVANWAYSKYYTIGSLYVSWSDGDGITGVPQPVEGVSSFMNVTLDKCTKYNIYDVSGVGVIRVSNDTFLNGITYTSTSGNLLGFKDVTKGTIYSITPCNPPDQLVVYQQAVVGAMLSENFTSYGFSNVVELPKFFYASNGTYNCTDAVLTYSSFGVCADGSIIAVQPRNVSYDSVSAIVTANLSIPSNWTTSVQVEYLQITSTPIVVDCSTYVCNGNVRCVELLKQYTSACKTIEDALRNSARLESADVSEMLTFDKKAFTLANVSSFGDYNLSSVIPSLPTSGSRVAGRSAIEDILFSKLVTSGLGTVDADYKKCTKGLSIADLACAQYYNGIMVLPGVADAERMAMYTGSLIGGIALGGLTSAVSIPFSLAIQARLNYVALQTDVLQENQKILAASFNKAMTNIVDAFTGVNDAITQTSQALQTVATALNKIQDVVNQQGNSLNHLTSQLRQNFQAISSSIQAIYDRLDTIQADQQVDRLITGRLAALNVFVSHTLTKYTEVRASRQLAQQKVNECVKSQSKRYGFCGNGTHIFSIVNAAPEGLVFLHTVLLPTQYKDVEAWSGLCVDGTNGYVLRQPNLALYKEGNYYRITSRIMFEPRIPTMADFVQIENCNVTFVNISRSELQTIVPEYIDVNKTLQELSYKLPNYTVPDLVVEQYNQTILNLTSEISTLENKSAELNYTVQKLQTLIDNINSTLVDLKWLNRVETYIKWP
Kind of experiment: multiplex bead assay.
B1: the binding result is “no binding”.
For B2, the binding result is reported as “no binding”.
Turning to B3, the binding result was “no binding”.
Take B4: the binding result was “no binding”.
Take B5: the binding result is “no binding”.
The same measure, in the same setting: under B6 stands “no binding”.
For the molecule B7, the binding result is listed as “no binding”.
For the molecule B8, the binding result is “no binding”.
For B9, the binding result is recorded as “no binding”.
Consider B10, for which the binding result is “no binding”.
Regarding B11, the binding result was “no binding”.
Still for that read-out and setting: under B12 stands “no binding”.

Source of the values: patent US20240101645A1 (HENRY M JACKSON FOUNDATION FOR THE ADVANCEMENT OF MILITARY …, published 2024).
